{"source": "paper PMC3727217", "origin": "cited, not measured here", "molecular_target": "His87 (UniProt position 88, YGATGHPGIIP)", "assay": "NMR", "settings": "not stated (context implies ligand-free FKBP12; ref 47 studied both the absence and presence of ligands)", "data": [{"substance": "FK506-binding protein FKBP12 (peptidyl-prolyl cis-trans isomerase FKBP1A) (Homo sapiens)", "values": [{"measurement": "pKa", "value": 5.92}]}]}
